For this series, the system named is MS2 coat protein. The series can be described thus: apparent KD of MS2 coat protein; designed switch direction (-1 OFF switch, 1 ON switch): -1; higher = weaker reporter binding. An outline of the steps: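 Designed RNA switches were transcribed on Illumina chips by stalled E. coli RNA polymerase and titrated with SNAP-549-labelled MS2 coat protein from 0.7 or 1.5 nM, doubling to 3 µM. Step length ran from 0.8–1.5 h at the lowest concentration to 10–20 min at the highest. The apparent KD is the median over clusters for each design, from curve-fitted normalised cluster fluorescence.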

[1] abbreviates: Eterna round: R95, input ligand: microRNA oligo, concentration not stated.
The mark [2] stands for this setting: input ligand: microRNA oligo, concentration not stated.

With “GCAUGUCUUAAGGAUAUGCUAAGGCGUGAGCCGGCAGAAGGUAAGACAUGAGGAUCACCCAUGUUUUCCUAAAA [jl-ex6-4.32 ViennaUCT mod] (Eterna round: R97, puzzle: Exclusion 6)”, the “apparent KD of MS2 coat protein” value was 91.3 nM (input ligand: FMN 200 uM) and 20.7 nM (input ligand: none).

In the case of “GCCGAGUGAGGAUAUACAUGAGGAUCACCCAUGUAAACACGAAAGCAAGUGUCCCUCAGUAGAAGGCGCCUGGA [Aerusesxe] (puzzle: Exclusion 3)”, the “apparent KD of MS2 coat protein” value under setting [1] was determined as 14.8 nM.

As for “GCCGUAAAUGUGAGGAUAUACCUAUGGAAACAUAGGUAGAAGGCACAUGAGGAUCACCCAUGUUCUCAAUCGGC [Mat - Exclusion 4 - Eli Mod - D6] (Eterna round: R97, puzzle: Brourd's mod of Exclusion 4)”, the “apparent KD of MS2 coat protein” value is, setting by setting: (input ligand: FMN 200 uM) 775 nM; (input ligand: none) 195 nM.

In the case of “GCCUCACAUGAGGAUCACCCAUGUCAGGAUAUCUAACGCGAGGUGCAGGCACUUCGUGAGAGAAGGGACGUCAA [Iszabius] (puzzle: Exclusion 1)”, the “apparent KD of MS2 coat protein” value under setting [1] is 19.4 nM.

For the sequence “GCCUCACUUGAGGAUCACCCAAGUCAGGAUAUUCACGGAACUACGUAGUAGUUCGGCCGGAGAAGGGAUUCGGG [Qubexe] (Eterna round: R97, puzzle: Exclusion 1)”, the “apparent KD of MS2 coat protein” value runs as follows: (input ligand: FMN 200 uM) 64.8 nM; (input ligand: none) 41.8 nM.

For “GCCUCACUUGAGGAUCACCCAAGUCAGGAUAUUCACGGAACUAUGUAGCAGUUCGGCCGGAGAAGGGAUUCGGG [Areses] (Eterna round: R97, puzzle: Exclusion 1)”, the “apparent KD of MS2 coat protein” value is, setting by setting: (input ligand: FMN 200 uM) 88.4 nM; (input ligand: none) 35 nM.

For “GCCUCGUCAGGAUAUCUCCACGUGAGCAAGGCUCACGGGCCAGAGAAGGGACUUGAGGAUCACCCAAGUAAAAC [Ritiatso] (Eterna round: R97, puzzle: Exclusion 4)”, the “apparent KD of MS2 coat protein” value (input ligand: FMN 200 uM) was found to be 428 nM and the “apparent KD of MS2 coat protein” value (input ligand: none) was 138 nM.

With “GCGAAAGCAAGCAAGUGAAACAUGAGGAUCACCCAUGUACUCAUUUGCUCGUCUUGUAAGCUAUGCGAAAGCAUAGC [Mat - Sensor v3 - turn-off var 1 - Eli Mod - D51] (puzzle: Sensor v3, turn-off variant 1)”, the “apparent KD of MS2 coat protein” value is, setting by setting: (Eterna round: R95, input ligand: FMN 200 uM) 10.7 nM; under setting [1], 9.67 nM; (Eterna round: R95, input ligand: none) 9.72 nM.

As for “GCGACGCUACAUGAGGAUCACCCAUGUCCUCACAUGAGAUGGUAGGAUAUUAUAUAUACAUUGUGUGAGAAGGAUCAUCGCCCA [Eternabot solution 2] (Eterna round: R96, puzzle: Exclusion NG 3)”, the “apparent KD of MS2 coat protein” value reads like this: (input ligand: FMN 200 uM) 351 nM; under setting [2], 74.8 nM; (input ligand: none) 121 nM.

Turning to “GCGAGCUGAGGAUAUACAUGAGGAUCACCCAUGUAUUUUGGAAGACUGCCUCCUGCACGUAGAAGGCGGCUCUU [Eternabot (L2) Solution 35] (Eterna round: R97, puzzle: Exclusion 3)”, the “apparent KD of MS2 coat protein” value runs as follows: (input ligand: FMN 200 uM) 24.4 nM; (input ligand: none) 24.7 nM.

Take “GCGCACCUACCAAAAGGUAGGCCAACAUGAGGAUCACCCAUGUAGGAUAUCGAUUGCUUUGCAGUCGAGAAGGGCAUGAUGCGC [JL ENG3 3.80 Mod 20] (Eterna round: R96, puzzle: Exclusion NG 3)”: the “apparent KD of MS2 coat protein” value was 17.2 nM (input ligand: FMN 200 uM), 14.4 nM under setting [2] and 19.9 nM (input ligand: none).

As to “GCGCACCUACCAAAAGGUAGGUCCACAUGAGGAUCACCCAUGUAGGAUAUCGAUUGCUUUGCAGUCGAGAAGGACAUGAUGCGC [JL ENG3 3.80 Mod 10] (Eterna round: R96, puzzle: Exclusion NG 3)”, the “apparent KD of MS2 coat protein” value reads like this: (input ligand: FMN 200 uM) 52.3 nM; under setting [2], 18.1 nM; (input ligand: none) 21.3 nM.

“GCGCACUAAGUGAGGAUAUCGUUUAUUUUUAGGAUCGAGAAGGCACAUGAGGAUCACCCAUGUUUGACGUGCGC [JR_BMOE4_Sub099] (puzzle: Brourd's mod of Exclusion 4)”: the “apparent KD of MS2 coat protein” value under setting [1] was determined as 17.9 nM.

Consider “GCGCAGUCAGGAUAUGCCGCUUGCGAUCACCGUUGGCAAAGGCAGAAGGGACAUGAGGAUCACCCAUGUGGCGC [e4e Mirror Pins #3] (puzzle: Exclusion 4)”, for which the “apparent KD of MS2 coat protein” value under setting [1] is 18.1 nM.

On to “GCGCCAUCGUGAGAUGGCGUAAAUACAUGAGGAUCACCCAUGUAGGAUAUCGAUUGCUUUGCAGUCGAGAAGGGCAAGGUAUUU [JL ENG3 3.90] (Eterna round: R96, puzzle: Exclusion NG 3)”, for which the “apparent KD of MS2 coat protein” value is, setting by setting: (input ligand: FMN 200 uM) 28.4 nM; under setting [2], 18.1 nM; (input ligand: none) 24.9 nM.

For the sequence “GCGCCAUCGUGAGAUGGCGUAACUACAUGAGGAUCACCCAUGUAGGAUAUCGAUUGCUUUGCAGUCGAGAAGGGCAUGGUUUGU [JL ENG3 3.86] (Eterna round: R96, puzzle: Exclusion NG 3)”, the “apparent KD of MS2 coat protein” value (input ligand: FMN 200 uM) was found to be 56.1 nM, the “apparent KD of MS2 coat protein” value under setting [2] is 20.2 nM and the “apparent KD of MS2 coat protein” value (input ligand: none) turned out to be 22.8 nM.

Consider “GCGCGAAGGUAGGAUAUCCGGGCAUCUUGCCGCGGAGAAGGACCCACAUGAGGAUCACCCAUGUGGUGAUCCUG [eternacac ex6r4 sub12] (Eterna round: R97, puzzle: Exclusion 6)”, for which the “apparent KD of MS2 coat protein” value runs as follows: (input ligand: FMN 200 uM) 40.8 nM; (input ligand: none) 19.4 nM.

Consider “GCGGACUAGUUCGUGAGAACUGAGACAUGAGGAUCACCCAUGUAGGAUAUCGAUUCGAAACGAAUCGAGAAGGGCAUAGUCCGC [JL denovo 9] (Eterna round: R96, puzzle: Exclusion NG 3)”, for which the “apparent KD of MS2 coat protein” value by setting is: (input ligand: FMN 200 uM) 25.1 nM; under setting [2], 17.7 nM; (input ligand: none) 26.8 nM.

For “GCGGACUUGAUCGUGAGAUCAGAGACAUGAGGAUCACCCAUGUAGGAUAUCGAUUCGUUUCGAAUCGAGAAGGGCGUGGUCCGC [JL denovo 15] (Eterna round: R96, puzzle: Exclusion NG 3)”, the “apparent KD of MS2 coat protein” value by setting is: (input ligand: FMN 200 uM) 83.9 nM; under setting [2], 52.2 nM; (input ligand: none) 70.2 nM.

Turning to “GCGUGACAUGAGGAUCACCCAUGUGAGGAUAUCUGGAUAAUCUUUAUUUUAGAUAUCCAGAGAAGGCACAUGCU [Ex1-3: 3Z] (puzzle: Exclusion 1)”, the “apparent KD of MS2 coat protein” value under setting [1] stood at 170 nM.

Turning to “GCGUUUUGGUGAGGAUAUCGGCCCUAAACCGGGCAACAUGAGGAUCACCCAUGUACGUGAUCCUGCGAGAAGGCACCGAUUAUA [Digeerle] (Eterna round: R96, puzzle: Exclusion NG 2)”, the “apparent KD of MS2 coat protein” value came out at 122 nM (input ligand: FMN 200 uM), 104 nM under setting [2] and 123 nM (input ligand: none).

“GCUAGAGCAGGAUAUCUAAAUCCUCACAUGAGGAUCACCCAUGUAGUCGAAAGACUAAGAAGAGAAGGGCUCUAGC [Omei Ex5 E19] (Eterna round: R97, puzzle: Exclusion 5)”: the “apparent KD of MS2 coat protein” value runs as follows: (input ligand: FMN 200 uM) 543 nM; (input ligand: none) 1290 nM.

For “GCUAGUCAUGUCAGGAUAUGCUGUUCCUUGGAACAGCAGAAGGGACAUGAGGAUCACCCAUGUGCCUAACUAGC [Mat - Exclusion 4 - JL Mod - D12] (Eterna round: R97, puzzle: Brourd's mod of Exclusion 4)”, the “apparent KD of MS2 coat protein” value came out at 558 nM (input ligand: FMN 200 uM) and 43.8 nM (input ligand: none).
